Publication PMC9249324

How the values were obtained:
Experiment in all cases: MST
[1] = biological target: MBP-Mpp83Aa1 modified with ABP5 at AA172-178 (Bacillus thuringiensis)
[2] = biological target: MBP-Mpp83Aa1 modified with ABP5 at AA70-76 (Bacillus thuringiensis)
[3] = biological target: MBP-Mpp83Aa1 modified with ABP5 at AA224-230 (Bacillus thuringiensis)
[4] = biological target: MBP-Mpp83Aa1 (native) (Bacillus thuringiensis)

## Recombinant N. viridula aminopeptidase N (enzyme)
[1]
  Kd: 4.98 nM
[2]
  Kd: 123 nM
[3]
  Kd: 187 nM
[4]
  Kd: 139 nM
